B1: Protein PTHB1 (Homo sapiens), Q3SYG4 (parent)
chain: MSLFKARDWWSTILGDKEEFDQGCLCLANVDNSGNGQDKIIVGSFMGYLRIFSPHPAKTGDGAQAEDLLLEVDLRDPVLQVEVGKFVSGTEMLHLAVLHSRKLCVYSVSGTLGNVEHGNQCQMKLMYEHNLQRTACNMTYGSFGGVKGRDLICIQSMDGMLMVFEQESYAFGRFLPGFLLPGPLAYSSRTDSFLTVSSCQQVESYKYQVLAFATDADKRQETEQQKLGSGKRLVVDWTLNIGEQALDICIVSFNQSASSVFVLGERNFFCLKDNGQIRFMKKLDWSPSCFLPYCSVSEGTINTLIGNHNNMLHIYQDVTLKWATQLPHIPVAVRVGCLHDLKGVIVTLSDDGHLQCSYLGTDPSLFQAPNVQSRELNYDELDVEMKELQKIIKDVNKSQGVWPMTEREDDLNVSVVVSPNFDSVSQATDVEVGTDLVPSVTVKVTLQNRVILQKAKLSVYVQPPLELTCDQFTFEFMTPDLTRTVSFSVYLKRSYTPSELEGNAVVSYSRPTDRNPDGIPRVIQCKFRLPLKLICLPGQPSKTASHKITIDTNKSPVSLLSLFPGFASQSDDDQVNVMGFHFLGGARITVLASKTSQRYRIQSEQFEDLWLITNELILRLQEYFEKQGVKDFACSFSGSIPLQEYFELIDHHFELRINGEKLEELLSERAVQFRAIQRRLLARFKDKTPAPLQHLDTLLDGTYKQVIALADAVEENQGNLFQSFTRLKSATHLVILLIALWQKLSADQVAILEAAFLPLQEDTQELGWEETVDAAISHLLKTCLSKSSKEQALNLNSQLNIPKDTSQLKKHITLLCDRLSKGGRLCLSTDAAAPQTMVMPGGCTTIPESDLEERSVEQDSTELFTNHRHLTAETPRPEVSPLQGVSE
partner: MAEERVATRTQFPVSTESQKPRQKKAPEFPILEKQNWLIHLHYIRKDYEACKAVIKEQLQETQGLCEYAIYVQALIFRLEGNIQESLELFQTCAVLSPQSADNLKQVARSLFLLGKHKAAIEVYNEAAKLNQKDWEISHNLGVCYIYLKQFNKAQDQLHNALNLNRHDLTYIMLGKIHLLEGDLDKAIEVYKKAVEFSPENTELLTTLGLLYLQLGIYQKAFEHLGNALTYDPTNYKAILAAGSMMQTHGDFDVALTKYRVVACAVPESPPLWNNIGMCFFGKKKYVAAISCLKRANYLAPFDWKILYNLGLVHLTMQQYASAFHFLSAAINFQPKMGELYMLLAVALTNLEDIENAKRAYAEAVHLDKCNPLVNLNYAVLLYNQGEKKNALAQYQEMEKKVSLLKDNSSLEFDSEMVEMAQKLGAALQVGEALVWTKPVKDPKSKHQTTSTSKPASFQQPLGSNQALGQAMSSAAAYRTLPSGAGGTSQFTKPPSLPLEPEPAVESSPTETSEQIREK

Variants of: B1
Details: with bbs4_human BBS4, Q96RK4

Variant	effect of a mutation on the interaction
I751K	with no effect
I751A	with no effect
I751E	with no effect
H778K	with no effect
H778A	with no effect
H778E	with no effect
A730E	with no effect
A730K	with no effect
V749K	with no effect
V749E	with no effect
V749A	with no effect
L784E	with no effect
L784K	with no effect
L784A	with no effect
G767A	with no effect
G767K	with no effect
G767E	with no effect
D762K	with no effect
D762A	with no effect
D762E	with no effect
L780E	with no effect
L780K	with no effect
L780A	with no effect

Variant	effect of a mutation on the interaction
E769K	with no effect
E769A	with no effect
A739E	with no effect
A739K	disrupting interaction strength
I735A	with no effect
I735K	with no effect
I735E	with no effect
S785A	with no effect
S785K	disrupting interaction strength
S785E	with no effect
T763E	with no effect
T763K	with no effect
T763A	with no effect
D773E	with no effect
D773A	with no effect
D773K	with no effect
L752E	with no effect
L752K	with no effect
L752A	with no effect
K781A	with no effect
K781E	with no effect
K743A	with no effect
K743E	with no effect

Variant	effect of a mutation on the interaction
C783A	with no effect
C783E	with no effect
C783K	with no effect
E765K	with no effect
E765A	with no effect
E770A	disrupting interaction strength
E770K	with no effect
A746E	with no effect
A746K	with no effect
A750K	with no effect
A750E	with no effect
L737K	with no effect
L737A	with no effect
L737E	with no effect
E753A	with no effect
E753K	with no effect
T771K	with no effect
T771A	with no effect
T771E	with no effect
K786E	with no effect
K786A	with no effect
A755K	with no effect
A755E	with no effect

Variant	effect of a mutation on the interaction
L733A	disrupting interaction strength
L733K	with no effect
L733E	with no effect
L740A	with no effect
L740K	with no effect
L740E	with no effect
S777E	disrupting interaction strength
S777K	with no effect
S777A	with no effect
Q742A	with no effect
Q742E	with no effect
Q742K	with no effect
P758E	with no effect
P758K	with no effect
P758A	with no effect
I776E	with no effect
I776K	with no effect
I776A	with no effect
A774E	with no effect
A774K	with no effect

From IntAct's records for PubMed 29039417
